Measured values reported in the supplement of paper PMC9233669.
Fewer inactive variants are shown than the library holds.

Legend:
biotinyl-Trp-oxazolone = test: self-aminoacylation, catalytic enhancement (BWO) (fold over background); higher = more active; k-Seq, kA / k0A0; sequences stand for … in GGGAAUGGAUCCACAUCUACGAAUUC…UUCACUGCAGACUUGACGAAGCUG
Method in brief: (§1)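 The uncatalyzed rate is the low-activity peak of a bimodal Gaussian fit, and catalytic enhancement is median kA divided by it. The kA values came from pseudo-first-order fits, with 1000 bootstraps, of per-sequence fraction reacted measured by streptavidin capture, triplicate qPCR and Illumina sequencing. Mutagenized RNA pools with a 21-nt variable region (0.43 μM) were reacted with each biotinyl-aminoacyl-oxazolone at 2–1250 μM in 50 μL HEPES/NaCl/KCl/MgCl2/CaCl2 buffer with 5% acetonitrile, pH 6.9–7.0, for 90 minutes at room temperature.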

biotinyl-Phe-oxazolone = test: self-aminoacylation, catalytic enhancement (BFO) (fold over background); higher = more active; k-Seq, kA / k0A0; sequences stand for … in GGGAAUGGAUCCACAUCUACGAAUUC…UUCACUGCAGACUUGACGAAGCUG
Method in brief: as §1

Sequence | self-aminoacylation (biotinyl-Trp-oxazolone) | self-aminoacylation (biotinyl-Phe-oxazolone)
CCCCACUUCUAGCAAUCGGUC [Fam1B.1 aminoacylation ribozyme variant] | 2.23 | 2.55
CCCCACUUUAAGCAAUCGGUC [Fam1B.1 aminoacylation ribozyme variant] | 2.1 | 2.4
CCUCUCUUCAAGCAAUCGGUC [Fam1B.1 aminoacylation ribozyme variant] | 20 | 36.3
CGACCCUUCAAGCAAUCGGUC [Fam1B.1 aminoacylation ribozyme variant] | 3.13 | 3.2
CGACUUCAAACAAUCGGUCUA [Fam1A.1 aminoacylation ribozyme variant] | 6.02 | 12.7
CUACACUUCAAGCAAUCGGUC [Fam1B.1 aminoacylation ribozyme variant] | 22.8 | 54.5
CUACACUUCAAUCAAUCGGUC [Fam1B.1 aminoacylation ribozyme variant] | 18.5 | 37.4
CUACAGUUCAAGCAAUCGGUC [Fam1B.1 aminoacylation ribozyme variant] | 2.96 | 4.84
CUACUUACAACAAUCGGUCUG [Fam1A.1 aminoacylation ribozyme variant] | 2.34 | 3.29
CUACUUCAAACAAUCGGUCAC [Fam1A.1 aminoacylation ribozyme variant] | 8.51 | 23.1
CUACUUCAAACAAUCGGUCAG [Fam1A.1 aminoacylation ribozyme variant] | 7.09 | 16.7
CUACUUCAAACAAUCGGUCGU [Fam1A.1 aminoacylation ribozyme variant] | 10.3 | 16.3
CUACUUCAAACAAUCGGUCUU [Fam1A.1 aminoacylation ribozyme variant] | 15.3 | 31.2
CUACUUCAAACAAUCGGUUUC [Fam1A.1 aminoacylation ribozyme variant] | 2.18 | 4.72
CUACUUCAAACAAUCUCUCUG [Fam1A.1 aminoacylation ribozyme variant] | 4.21 | 10.1
CUACUUCAAAUAAUCGGUUUG [Fam1A.1 aminoacylation ribozyme variant] | 8.58 | 16

Sequence | self-aminoacylation (biotinyl-Trp-oxazolone) | self-aminoacylation (biotinyl-Phe-oxazolone)
CUACUUCAACCAAUCGGUUUG [Fam1A.1 aminoacylation ribozyme variant] | 10.8 | 17
CUAGUUCAAACAAUCGGUCUG [Fam1A.1 aminoacylation ribozyme variant] | 6.47 | 11
CUAGUUCAAACAAUCGGUUUG [Fam1A.1 aminoacylation ribozyme variant] | 3.41 | 4.59
CUAGUUCAAUCAAUCGGUCUG [Fam1A.1 aminoacylation ribozyme variant] | 2.63 | 3.97
CUAGUUCCAACAAUCGGUCUG [Fam1A.1 aminoacylation ribozyme variant] | 9.72 | 9.79
CUCCCUCAAACAAUCGGUCUG [Fam1A.1 aminoacylation ribozyme variant] | 3.48 | 3.26
CUCCUUCAAAGAAUCGGUCUG [Fam1A.1 aminoacylation ribozyme variant] | 5.66 | 6.59
CUGGUUCAAACAAUCGGUCUG [Fam1A.1 aminoacylation ribozyme variant] | 9.11 | 14
CUUCUUCAAACAAUCGGUCUA [Fam1A.1 aminoacylation ribozyme variant] | 4.8 | 11.4
GCACACUUCAAGCAAUCAGUC [Fam1B.1 aminoacylation ribozyme variant] | 4.94 | 9.69
GCACACUUCAAGCAAUCGGUC [Fam1B.1 aminoacylation ribozyme variant] | 19.8 | 32.3
GCACAUUUCAAGCAAUCGGUC [Fam1B.1 aminoacylation ribozyme variant] | 3.16 | 3.69
GUACUUCAAACAAUCGGUCCG [Fam1A.1 aminoacylation ribozyme variant] | 3.6 | 6.11
UAGUUUGCUAAUAGUCGGAAG [Fam3.1 aminoacylation ribozyme variant] | 2.37 | 6.04
UAGUUUGCUAAUAGUCGUAAG [Fam3.1 aminoacylation ribozyme variant] | 4.18 | 17.9
